Drawing on publication PMC3145769, this text covers percent co-precipitated relative to WT for 2 substances.

Common to all, as to assay: co-IP; anti-Flag M2 affinity gel on extracts of NIH3T3 cells transfected with 3xFlag Cyclin A2 alleles; endogenous partners detected by Western blot; densitometry (ImageQuantTL) normalised to immunoprecipitated Cyclin A2, percent of WT; repeated 5 times
(Immunoblotting shows a protein as a band on a membrane.)

Experiment [1] addresses Cyclin A2 K256A, C-terminally fused to 3 Flag tags (mouse) (UniProt P51943).
For experiment [2], the target named is Cyclin A2 L282R, C-terminally fused to 3 Flag tags (mouse) (UniProt P51943).
Chain of Cyclin A2 L282R, C-terminally fused to 3 Flag tags (mouse) (P51943 whole entry L282R, the tested form may be a part): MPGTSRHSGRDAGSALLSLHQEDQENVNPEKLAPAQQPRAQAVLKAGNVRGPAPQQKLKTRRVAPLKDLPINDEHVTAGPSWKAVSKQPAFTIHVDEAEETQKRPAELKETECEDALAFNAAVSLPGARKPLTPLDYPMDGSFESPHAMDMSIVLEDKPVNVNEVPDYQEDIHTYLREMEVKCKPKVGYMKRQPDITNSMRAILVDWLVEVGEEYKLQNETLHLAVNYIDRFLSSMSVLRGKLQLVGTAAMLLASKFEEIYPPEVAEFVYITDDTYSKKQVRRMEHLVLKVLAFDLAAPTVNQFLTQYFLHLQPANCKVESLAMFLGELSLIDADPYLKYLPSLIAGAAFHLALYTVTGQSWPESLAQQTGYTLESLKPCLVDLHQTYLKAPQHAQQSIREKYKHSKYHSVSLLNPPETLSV
Experiment [3] deals with Cyclin A2 M200A, C-terminally fused to 3 Flag tags (mouse) (UniProt P51943).
Chain of Cyclin A2 M200A, C-terminally fused to 3 Flag tags (mouse) (P51943 whole entry M200A, the tested form may be a part): as the sequence (P51943 whole entry L282R, the tested form may be a part) above, with M200A, R282L counted along it
For experiment [4], the target named is Cyclin A2 WT, C-terminally fused to 3 Flag tags (mouse) (UniProt P51943).
Chain of Cyclin A2 WT, C-terminally fused to 3 Flag tags (mouse) (P51943 whole entry, the tested form may be a part): as the sequence (P51943 whole entry L282R, the tested form may be a part) above, with R282L counted along it
Experiment [5] has as its target Cyclin A2 E210Q, C-terminally fused to 3 Flag tags (mouse) (UniProt P51943).
The target of experiment [6] is Cyclin A2 W207A, C-terminally fused to 3 Flag tags (mouse) (UniProt P51943).
Chain of Cyclin A2 W207A, C-terminally fused to 3 Flag tags (mouse) (P51943 whole entry W207A, the tested form may be a part): as the sequence (P51943 whole entry L282R, the tested form may be a part) above, with W207A, R282L counted along it
Experiment [7] addresses Cyclin A2 D171A, C-terminally fused to 3 Flag tags (mouse) (UniProt P51943).
Experiment [8] deals with Cyclin A2 L204A, C-terminally fused to 3 Flag tags (mouse) (UniProt P51943).
Chain of Cyclin A2 L204A, C-terminally fused to 3 Flag tags (mouse) (P51943 whole entry L204A, the tested form may be a part): as the sequence (P51943 whole entry L282R, the tested form may be a part) above, with L204A, R282L counted along it
For experiment [9], the target named is Cyclin A2 Double (W207L, E210Q), C-terminally fused to 3 Flag tags (mouse) (UniProt P51943).
Chain of Cyclin A2 Double (W207L, E210Q), C-terminally fused to 3 Flag tags (mouse) (P51943 whole entry W207L/E210Q, the tested form may be a part): as the sequence (P51943 whole entry L282R, the tested form may be a part) above, with W207L, E210Q, R282L counted along it
In experiment [10] the target is Cyclin A2 E285A, C-terminally fused to 3 Flag tags (mouse) (UniProt P51943).
Chain of Cyclin A2 E285A, C-terminally fused to 3 Flag tags (mouse) (P51943 whole entry E285A, the tested form may be a part): as the sequence (P51943 whole entry L282R, the tested form may be a part) above, with R282L, E285A counted along it
Experiment [11] addresses Cyclin A2 E180A, C-terminally fused to 3 Flag tags (mouse) (UniProt P51943).

Chain of Cyclin A2 E180A, C-terminally fused to 3 Flag tags (mouse) (P51943 whole entry E180A, the tested form may be a part): as the sequence (P51943 whole entry L282R, the tested form may be a part) above, with E180A, R282L counted along it
Chain of Cyclin A2 E210Q, C-terminally fused to 3 Flag tags (mouse) (P51943 whole entry E210Q, the tested form may be a part): as the sequence (P51943 whole entry L282R, the tested form may be a part) above, with E210Q, R282L counted along it
Chain of Cyclin A2 D171A, C-terminally fused to 3 Flag tags (mouse) (P51943 whole entry D171A, the tested form may be a part): as the sequence (P51943 whole entry L282R, the tested form may be a part) above, with D171A, R282L counted along it
Chain of Cyclin A2 K256A, C-terminally fused to 3 Flag tags (mouse) (P51943 whole entry K256A, the tested form may be a part): as the sequence (P51943 whole entry L282R, the tested form may be a part) above, with K256A, R282L counted along it

Turning to “CDK2 (endogenous, NIH3T3) (from UniProt P97377 1-346)”, the percent co-precipitated relative to WT in experiment [1] stood at 68.2%.
Consider “CDK2 (endogenous, NIH3T3) (from UniProt P97377 1-346) (enzyme)”, for which the percent co-precipitated relative to WT in experiment [2] was 81.5%; in experiment [3] it was 86.4%; in [4], 100%; in [5], 99.6%; in experiment [6], 1.2%; in [7] it was 100%. The percent co-precipitated relative to WT in experiment [8] came to 72.4%; in experiment [9] it was 66.4%; in experiment [10], 41.7%; in experiment [11], 17.7%.
